Measured values: the supplement of paper PMC9732359
± gives the uncertainty stated by the source.

Assay: protein stability index of a GFP-peptide fusion (yeast GPS) (PSI 1-4); higher = more stable; sorted into four equal gates, so the index is relative within each strain
Procedure, shortened: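 Sequencing reads from sorted gates were used to score each peptide. The library consisted of tiled 17-residue yeast protein peptides fused downstream of GFP on a Cherry-expressing plasmid, pooled and carried in yeast. Mid-log cultures in leucine-free medium were split into four equal gates by GFP/Cherry ratio, and each gate's plasmids were PCR-amplified and Illumina-sequenced. The protein stability index adds up, over all gates, the read frequency multiplied by the gate number.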

Row | Sequence | protein stability index (doa10∆) | protein stability index (pdr5∆) | protein stability index (san1∆) | protein stability index (ubr1∆)
1 | HILFQNNPDMMIQPPQQ [ROX3] | 2.94 ± 0.062 | 2.96 ± 0.07 | 3.06 ± 0.066 | 3.02 ± 0.046
2 | KPPTQKTDTKVSFRTHN [SRP21] | 2.52 ± 0.078 | 2.82 ± 0.072 | 2.57 ± 0.07 | 2.7 ± 0.065
3 | GSTSLIEGMEQRIIKEL [ARP7] | 3.19 ± 0.12 | 3.23 ± 0.12 | 2.98 ± 0.24 | 2.71 ± 0.21
4 | LIIIAANTPVLRKSELE [RPL30] | 2.2 ± 0.11 | 2.68 ± 0.14 | 2.31 ± 0.094 | 2.77 ± 0.13
5 | TVASSKVGYTLPSHIIS [RPL4A] | 3.19 ± 0.076 | 3.02 ± 0.052 | 3.09 ± 0.035 | 3.25 ± 0.043
6 | ETNGYDPFSIYGFSNKE [SNF5] | 1.64 ± 0.047 | 1.51 ± 0.075 | 2.12 ± 0.083 | 2.03 ± 0.063
7 | SDEEEVTEMSNNANVLG [BRR2] | 3.03 ± 0.065 | 3.1 ± 0.049 | 2.83 ± 0.063 | 3.17 ± 0.046
8 | ENISLAEFILKNRSTIF [BRR2] | 2.77 ± 0.082 | 2.13 ± 0.082 | 1.67 ± 0.11 | 1.88 ± 0.054
9 | LIEKEIQPKITELKKKL [SMC1] | 3.02 ± 0.1 | 2.91 ± 0.089 | 2.9 ± 0.11 | 3.02 ± 0.077
10 | VGGQFSKVQFDAKTSYP [REC8] | 3.19 ± 0.095 | 3.17 ± 0.094 | 3 ± 0.077 | 3.19 ± 0.055
11 | YITLKATFLKDDLPYYV [QCR2] | 2.42 ± 0.047 | 2.17 ± 0.049 | 2.51 ± 0.054 | 2.44 ± 0.039
12 | VPRAALEERFDPKSPTK [YMR129W/POM152] | 3.15 ± 0.062 | 3.09 ± 0.064 | 3.01 ± 0.043 | 3.1 ± 0.047
13 | QVEYALESISHAGTAIG [PRE9] | 2.34 ± 0.077 | 2.33 ± 0.083 | 2.4 ± 0.082 | 2.52 ± 0.07
14 | QLDLCKLYFQLFLNTGC [SRP68] | 2.01 ± 0.038 | 1.4 ± 0.042 | 1.45 ± 0.092 | 1.7 ± 0.037
15 | VTVEQLRSIYHQFHDIL [NSL1] | 2.41 ± 0.11 | 1.9 ± 0.073 | 1.31 ± 0.16 | 1.81 ± 0.066
16 | KVYAQLLESYKTLSLKS [RPN7] | 2.04 ± 0.062 | 2.56 ± 0.085 | 2 ± 0.11 | 1.32 ± 0.03
17 | SMTATADVLAMAKVEVN [RIP1] | 1.99 ± 0.12 | 2.4 ± 0.11 | 2.43 ± 0.15 | 2 ± 0.074
18 | TSQKMKKMVYVLDSMTK [SRP54] | 2.79 ± 0.11 | 3.12 ± 0.11 | 3.13 ± 0.21 | 2.96 ± 0.078
19 | ESSKLMTVTKVSLPEGS [BRR2] | 2.93 ± 0.22 | 2.33 ± 0.11 | 3.19 ± 0.1 | 2.63 ± 0.073
20 | TTPVKLGPGIYCDPNTQ [RRP40] | 2.65 ± 0.077 | 2.2 ± 0.076 | 2.74 ± 0.06 | 2.35 ± 0.05
21 | LTLQEDYIKDEQRHLKR [RPT3] | 3.43 ± 0.11 | 3.18 ± 0.081 | 3.14 ± 0.085 | 3.32 ± 0.07
22 | DVTPADDLKQKKEELVE [RPO31] | 3.12 ± 0.16 | 3.25 ± 0.093 | 3.08 ± 0.15 | 3.24 ± 0.12
23 | SSPLGFEETKLSTTPTK [SIR4] | 2.57 ± 0.053 | 2.71 ± 0.063 | 2.6 ± 0.054 | 2.67 ± 0.058
24 | FVSSLSNTSTLKNMLYV [BRR2] | 1.88 ± 0.058 | 2.08 ± 0.049 | 1.85 ± 0.064 | 2.18 ± 0.036
25 | RSPRVVTNALDNIDEKV [NUT1] | 2.92 ± 0.056 | 2.79 ± 0.054 | 2.77 ± 0.058 | 3.03 ± 0.058
26 | ILGIAGEDFAVLAGDTR [PRE7] | 3.65 ± 0.22 | 3.2 ± 0.23 | 3.32 ± 0.23 | 3.64 ± 0.076
27 | SGKLRDYQVQGLNWLIS [ISW2] | 2.58 ± 0.07 | 2.71 ± 0.053 | 2.33 ± 0.065 | 2.85 ± 0.039

Row | Sequence | protein stability index (doa10∆) | protein stability index (pdr5∆) | protein stability index (san1∆) | protein stability index (ubr1∆)
28 | NVRMDTMANILYYPQKP [RPB2] | 2.83 ± 0.11 | 3.23 ± 0.24 | 3.12 ± 0.1 | 2.99 ± 0.1
29 | QDNKQLYQIWIVMVWLK [YDL116W/NUP84] | 2.62 ± 0.058 | 2.62 ± 0.049 | 3.02 ± 0.065 | 2.78 ± 0.031
30 | MARGPKKHLKRLAAPHH [RPS4A] | 2.9 ± 0.13 | 3 ± 0.087 | 3.1 ± 0.069 | 3.05 ± 0.054
31 | VERGRVGACTDEEMTIS [RRP43] | – | 3.08 ± 0.23 | – | 3.23 ± 0.2
32 | NGLLNEISRLKTSLSIK [SMC2] | 3.1 ± 0.21 | 3.25 ± 0.11 | 3.12 ± 0.11 | 3.11 ± 0.15
33 | NMFGDYSNEPFNTNFDD [SNF6] | 3.11 ± 0.088 | 2.78 ± 0.059 | 3.06 ± 0.069 | 2.85 ± 0.045
34 | STNEDQNNSKHTEDTVN [SRB5] | 2.39 ± 0.1 | 2.1 ± 0.077 | 1.65 ± 0.1 | 2.31 ± 0.051
35 | KGYLQRGDDGESYAYLA [CDC53] | 3.17 ± 0.057 | 3.17 ± 0.055 | 3.21 ± 0.033 | 3.25 ± 0.044
36 | CSPKLPVEKVQRIAKND [DLS1] | 2.86 ± 0.29 | 3.32 ± 0.12 | 3.17 ± 0.13 | 3.4 ± 0.12
37 | RQREMAEEQTKLQSQSL [YLR018C/POM34] | 3.18 ± 0.045 | 3.28 ± 0.046 | 3.11 ± 0.05 | 3.1 ± 0.036
38 | TSTDFPGFSKDAENEWN [RPC40] | – | 3.1 ± 0.22 | – | –
39 | DDPLENMFGDYSNEPFN [SNF6] | 2.98 ± 0.087 | 2.81 ± 0.069 | 3.26 ± 0.085 | 3.16 ± 0.058
40 | TNGNNAGGGSNKSSVRP [MED6] | 3.19 ± 0.14 | 3.47 ± 0.097 | 2.77 ± 0.1 | 3.11 ± 0.088
41 | AVYGPRSIRGSFTSQGT [MTR3] | 3.16 ± 0.12 | 3.2 ± 0.086 | 3.08 ± 0.098 | 3.02 ± 0.058
42 | EKIRPLRSRSFKSTESN [YMR129W/POM152] | – | – | 2.87 ± 0.28 | –
43 | TANAKHTSSNSREIAQP [SMB1] | 2.91 ± 0.14 | 2.94 ± 0.099 | 3.19 ± 0.07 | 3.33 ± 0.17
44 | NHFSLSYKDSGLWGFST [COR1] | 2.96 ± 0.077 | 3.23 ± 0.073 | 3.15 ± 0.046 | 3.02 ± 0.054
45 | EDDESLGHKELKVRKGH [RPB2] | 2.29 ± 0.071 | 2.54 ± 0.067 | 2.45 ± 0.076 | 2.97 ± 0.049
46 | VLNQQLPIESQFVSKLV [BRR2] | 1.74 ± 0.066 | 1.98 ± 0.048 | 1.96 ± 0.1 | 2.01 ± 0.043
47 | KRRKTHIHKHVKDEAFD [RET1] | 2.87 ± 0.11 | 3.23 ± 0.12 | 2.92 ± 0.095 | 3.1 ± 0.1
48 | ANRDDVKGRENELLLPS [RPC82] | 3.37 ± 0.14 | – | 3.6 ± 0.09 | 3.34 ± 0.084
49 | RSSSASNEFVPNTSDNN [SWI1] | 2.72 ± 0.068 | 2.77 ± 0.09 | 2.69 ± 0.059 | 2.9 ± 0.063
50 | TTYTYQQPNPLQDLISV [ROX3] | 1.67 ± 0.059 | 1.81 ± 0.069 | 1.7 ± 0.11 | 2.08 ± 0.1
51 | CSGSGMGGVSALRGMFK [FAS2] | 3.64 ± 0.097 | 3.68 ± 0.08 | 3.37 ± 0.096 | 3.43 ± 0.067
52 | EDTLSGYDPIVSTRAID [PRP28] | 2.51 ± 0.2 | 2.67 ± 0.12 | 3.13 ± 0.15 | 3.16 ± 0.093
53 | TVVGNASFGKNLQIRQL [DSN1] | – | 2.7 ± 0.17 | – | 2.97 ± 0.2
54 | SPSTSANVPSTATTGKR [RPN4] | 2.16 ± 0.18 | 2.2 ± 0.1 | 2.62 ± 0.11 | 2.65 ± 0.096
